Experimental data published in the supplement of paper PMC11865577.

Columns and labels:
Assay in all cases: pull-down binding Z-score (relative to library population); higher = stronger binding
[1] = tested on: G-clamp-N3 (biotin conjugate); settings: RNA library: Library-1 (pre-miRNA loops + repeats)
How it was run: (§1)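 To score binding, a beads-only signal was subtracted, barcoded replicate probes were averaged with the highest and lowest dropped, and the value was converted to a Z-score using the library mean and standard deviation. The input was 1 μg of Cy5- or Cy3-end-labelled RNA library, heat-folded in phosphate/NaCl/KCl buffer and mixed for 60 min at 25 °C with streptavidin beads carrying 100 pmol of biotin-conjugated small molecule. Bound RNA was eluted in hot SDS and hybridised to a DNA barcode microarray at 55.5 °C for 20 h.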

[2] = tested on: TO-3-N3-2 (biotin conjugate); settings: RNA library: Library-2
How it was run: as §1

[3] = tested on: TO-N3-2 (biotin conjugate); settings: RNA library: Library-2
How it was run: as §1

[4] = tested on: TO-3-N3 (biotin conjugate); settings: RNA library: Library-2
How it was run: as §1

[5] = tested on: TO-N3 (biotin conjugate); settings: RNA library: Library-2
How it was run: as §1

Row | Sequence | pull-down binding Z-score [1] | pull-down binding Z-score [2] | pull-down binding Z-score [3] | pull-down binding Z-score [4] | pull-down binding Z-score [5]
1 | UCAGCUGUGGAAAGUAAGAAAGCUGG [hsa-mir-30c-2] | -0.0598 | 1.22 | 1.31 | 0.97 | 1.28
2 | UCAGGAUCUACUCAUGUCGUCUUUGG [hsa-mir-573] | -1.01 | -0.199 | 0.472 | -0.404 | -0.165
3 | UCAGGCUUUAAUGUUUGAAGUAAUGUCAGU [hsa-mir-6874] | 0.286 | 0.146 | 0.228 | 0.511 | 0.555
4 | UCAGGGAGAAAGUGCAUACAGCCCCUG [hsa-mir-328] | -0.344 | -0.166 | 0.36 | -0.47 | -0.112
5 | UCAGGUGAAUGUGUCUGG [hsa-mir-3916] | -1.06 | -0.427 | -0.347 | -0.539 | -0.773
6 | UCAGUUUUGUAGCAUCAAAACU [hsa-mir-4521] | -0.216 | -0.161 | -0.134 | -0.308 | -0.342
7 | UCAUAAAGAUGAUC [hsa-mir-8067] | -0.0232 | 0.0624 | 0.0453 | 0.251 | 0.381
8 | UCAUAAAUAUUUUAAGGAAUGACCCGGCCCUGGGG [hsa-mir-4285] | -0.171 | 0.31 | 0.308 | -0.306 | -0.199
9 | UCAUUUAUGUGAACUAAAAUAUAAAUUU [hsa-mir-513a-2_513a-1] | -1.8 | -0.361 | -1.11 | -1.03 | -1.25
10 | UCCAACCUGAAAUCCUUCUGUAGGUUGAG [hsa-mir-5702] | 1.18 | -0.273 | 0.0189 | -0.291 | -0.245
11 | UCCACAAGGAGGGGAUGACCCUUGUGGG [hsa-mir-4437] | -0.125 | 3.06 | 1.37 | 4.12 | 3.14
12 | UCCACACUGACAAGGGCCGUGGGG [hsa-mir-3191] | -0.843 | 0.217 | 0.967 | 1.19 | 1.19
13 | UCCACCCCCAGAGAAUCCCUAAACCGGGGGUGGA [hsa-mir-1289-1] | -1.69 | -0.243 | -0.449 | -0.51 | -0.645
14 | UCCACCCUGGUCCAGGUCCACAGCAGUGGA [hsa-mir-4644] | -0.617 | 0.0936 | 0.479 | 0.173 | 0.441
15 | UCCACCUAGACGGGCCUGGGUCAA [hsa-mir-4698] | -0.781 | -0.0391 | 0.907 | 0.349 | 0.552
16 | UCCAGACGGAGAUGCGA [hsa-mir-611] | -1.18 | -0.000716 | 0.858 | -0.353 | 0.192
17 | UCCAGAGGCAUCCCUAACCCAGAAUCUUUUGACUGUCCUCUGGA [hsa-mir-4306] | -0.668 | -0.358 | -0.281 | -0.198 | -0.253
18 | UCCAGCUGUGUGAUAUUCUGCUG [hsa-mir-19b-1] | -0.727 | 0.159 | 0.384 | 0.907 | 0.909
19 | UCCAGGAUCUGGGUUUUGAGGUCUUGG [hsa-mir-4309] | 0.525 | 0.267 | 0.345 | 0.835 | 0.673

Row | Sequence | pull-down binding Z-score [1] | pull-down binding Z-score [2] | pull-down binding Z-score [3] | pull-down binding Z-score [4] | pull-down binding Z-score [5]
20 | UCCAGGCAUCUGUGUCUG [hsa-mir-4669] | -0.0379 | 0.402 | 0.591 | 1.48 | 1.52
21 | UCCAGGGCUCCUGACACCUGGA [hsa-mir-6861] | -0.943 | -0.533 | -0.248 | -0.649 | -0.785
22 | UCCAGUGUGGCUCGGAGGCUGGA [hsa-mir-139] | 3.31 | 0.381 | 1.18 | 0.91 | 1.23
23 | UCCAUGAAAAGAACCCAUGGG [hsa-mir-4471] | -0.734 | 0.0519 | -0.307 | -0.455 | -0.608
24 | UCCCAGCCACUCUGGAGG [hsa-mir-4419b] | 0.653 | -0.194 | 0.631 | 0.274 | 0.44
25 | UCCCAGGAAAUUCACUUUAGGAAGUCCUAGGA [hsa-mir-5571] | 0.804 | -0.303 | -1.41 | -0.734 | -1.1
26 | UCCCAGGCCCUUCCUCCAAUACUGGGA [hsa-mir-4666b] | -0.809 | -0.0987 | -0.446 | -0.252 | -0.383
27 | UCCCAUUUCCACAUGGAGAGUGGAGCCCAGA [hsa-mir-3123] | 1.02 | 0.0927 | 0.671 | 0.384 | 0.639
28 | UCCCCAGAAGCUGAGGAUUAGGGGA [hsa-mir-6503] | 1.93 | -0.131 | -0.108 | 0.0937 | -0.0188
29 | UCCCCUAGCGCGCCUUCUGGAGA [hsa-mir-3188] | 1.12 | -0.0116 | 0.507 | -0.271 | -0.0603
30 | UCCCCUCAGGA [hsa-mir-5703] | 0.99 | -0.595 | -0.802 | 0.0295 | -0.256
31 | UCCCUUCCUGGACACACAGGAGGAGA [hsa-mir-5680] | -1.27 | -0.8 | -0.56 | -0.738 | -0.874
32 | UCCGGCCGGCCAUGCUGGCGGGG [hsa-mir-762] | 0.45 | -0.506 | 0.213 | -0.72 | -0.676
33 | UCCUAGGCGGGUCGCUGCGGUACCUCCCUCCUGUCUGUGGCGGUGGGAUCCCGUGGCCGUGUUUUCCUGGUG [hsa-mir-663b] | -0.826 | -0.0831 | 1.55 | -0.114 | 0.683
34 | UCCUCAGACCAGGUGGCUCCCGAGCCACCCCAGGCUGUAGG [hsa-mir-2392] | -1.09 | -0.183 | 1.75 | -0.0269 | 0.743
35 | UCCUCCACAAAUGCGUGUGGAGGA [hsa-mir-4633] | 0.135 | -0.698 | -1.6 | -0.89 | -1.34
36 | UCCUCCAUGCUUGGAAAAUGCAGGGAGGA [hsa-mir-764] | 0.669 | -0.61 | -1.01 | -0.857 | -0.987
37 | UCCUCUCCUGGUCUGGGAGGAUAGAAGAGAGGA [hsa-mir-5191] | 1.96 | -0.219 | 3.13 | -0.205 | 0.823
